Test results: PMC4846087

Experiments:
GST (27 kDa GST protein) = assay: SEC; Superdex 200 10/300 GL pre-equilibrated with L buffer (40 mM Tris-base, 200 mM NaCl, 1 mM EDTA, 5% glycerol, 5 mM DTT, pH 8.0); eluate of the GST affinity column loaded; molecular weights of the peaks estimated from the column manufacturer's instructions; peaks analysed by SDS-PAGE
[1] = biological target: GST-tagged VirB9-1 (not stated | Anaplasma marginale); assay: as above

Substance: GST (27 kDa GST protein) (natural protein)
- stoichiometry N (GST (27 kDa GST protein)): 2

Substance: GST-tagged VirB9-1
- stoichiometry N [1]: 2
